Tests used:
Experiment in all cases: purified protein
Type in all cases: biochemical, Camellia sinensis
Settings in all cases: apparent Km, NADPH, 0.1 M potassium phosphate pH 7.0, 30 °C
purified protein [1] = substrate: O=C1c2c(O)cc(O)cc2O[C@H](c2cc(O)c(O)c(O)c2)[C@H]1O
purified protein [2] = substrate: O=C1c2c(O)cc(O)cc2O[C@H](c2ccc(O)c(O)c2)[C@H]1O
purified protein [3] = substrate: O=C1c2c(O)cc(O)cc2O[C@H](c2ccc(O)cc2)[C@H]1O

Protein	Km (purified protein [1])	Km (purified protein [2])	Km (purified protein [3])
CsDFRa (Camellia sinensis) (protein) MKDSVASATASAPGTVCVTGAAGFIGSWLVMRLLERGYIVRATVRDPANLKKVKHLLDLPKADTNLTLWKADLNEEGSFDEAIEGCSGVFHVATPMDFESKDPENEVIKPTINGVLSIIRSCTKAKTVKRLVFTSSAGTVNVQEHQQPVFDENNWSDLDFINKKKMTGWMYFVSKTLAEKAAWEAAKENNIDFISIIPTLVVGPFIMPTFPPSLITALSPITRNEGHYSIIKQGQFVHLDDLCESHIFLYERPQAEGRYICSSHDATIHDLAKLMREKWPEYNVPTEFKGIDKDLPVVSFSSKKLIGMGFEFKYSLEDMFRGAIDTCREKGLLPHSFAENPVNGNKV	58.44 µM	41.80 µM	145.10 µM
CsDFRc (Camellia sinensis) (protein) MEDTKSKLQEGSAVESLTTTTYCVTGATGYIGSWLVKSLLQRGYRVHATVRNQAKTLHLLPLWGGGDRLRVFRADLHKEGSFNEAVQGCSGVFHVAASMEFEVPAKEDIDSYVRANVIEPAINGTLNLLKSCLKTPSVRRVVFTSSISTMTAKDSAGKWRSVVDESCQNPIDRVWKTKTGAWVYVLSKLLTEEAAFQFANENSIDLVSVITTTVAGPFLTSTVPTSVQVLLSPITGDSKFSRILSAVNSRMGSIALVHIEDICSAHIFLMEHDGAEGRYICSAHSSVISQLVDHLAKEHPFSNMQRLVEEEHGSVPSEISSKKLRDLGFNFKFGLEDIIHHTVSSCVDCGFLCPTVN	105.56 µM	81.80 µM	42.31 µM
CsDFRb1 (Camellia sinensis; C126T) (protein, only point mutants active) MEVVEVKNGYGGGGGTTVCVTGASGFIGSWLVMRLLQRGYYVRATVRDPDNTDKVKHLLDLPNATTHLSLWKADLDEDGSFDDAIQGCHGVFHVATPMNFVFVMDPENEYIKPTVDGVLNVMRSCTKAKTVKRIIYTSTMATIEYQQKPPSQYDESIWTDVDFCRARKMFAWMYLVAKTEAEKAAWKFAEDNGPDLITVHPCSVIGPFITPYKPPCTSMALALITKNKAFYPMLTQGHAVHVDDVCNAHIYLFEHPQAKGRYICSSHSFTILDLASSLSKKYPEYNIQTKFEDIDESLKPIPCPSKKLLDLGFKFKYNSDECDAGDLCAEAIEACKEKGQMPSL	47.75 µM	102.57 µM	131.09 µM
CsDFRb1 (Camellia sinensis; N120S) (protein, only point mutants active) MEVVEVKNGYGGGGGTTVCVTGASGFIGSWLVMRLLQRGYYVRATVRDPDNTDKVKHLLDLPNATTHLSLWKADLDEDGSFDDAIQGCHGVFHVATPMNFVFVMDPENEYIKPTVDGVLSVMRSCCKAKTVKRIIYTSTMATIEYQQKPPSQYDESIWTDVDFCRARKMFAWMYLVAKTEAEKAAWKFAEDNGPDLITVHPCSVIGPFITPYKPPCTSMALALITKNKAFYPMLTQGHAVHVDDVCNAHIYLFEHPQAKGRYICSSHSFTILDLASSLSKKYPEYNIQTKFEDIDESLKPIPCPSKKLLDLGFKFKYNSDECDAGDLCAEAIEACKEKGQMPSL	96.58 µM	108.66 µM	148.96 µM

— paper PMC9250652, “Functional analysis of the dihydroflavonol 4-reductase family of Camellia sinensis: exploiting key amino acids to reconstruct reduction activity” (Horticulture Research, 2022)
